Reference: paper PMC5086056

Molecular target: AcGFP1-JAK3 (pAcGFP1-JAK3) (Bos taurus) (UniProt E1BEL4)
Assay: co-IP; Matchmaker Co-IP system; ProLabel enzymatic activity (luminescence, ProLabel detection kit) in protein samples of HEK cells co-transfected with pAcGFP1-JAK3 and a pProLabel prey; read 25 min after addition of the substrate; against the negative control

UniProt E1BEL4, sequence (E1BEL4 entry or part of it): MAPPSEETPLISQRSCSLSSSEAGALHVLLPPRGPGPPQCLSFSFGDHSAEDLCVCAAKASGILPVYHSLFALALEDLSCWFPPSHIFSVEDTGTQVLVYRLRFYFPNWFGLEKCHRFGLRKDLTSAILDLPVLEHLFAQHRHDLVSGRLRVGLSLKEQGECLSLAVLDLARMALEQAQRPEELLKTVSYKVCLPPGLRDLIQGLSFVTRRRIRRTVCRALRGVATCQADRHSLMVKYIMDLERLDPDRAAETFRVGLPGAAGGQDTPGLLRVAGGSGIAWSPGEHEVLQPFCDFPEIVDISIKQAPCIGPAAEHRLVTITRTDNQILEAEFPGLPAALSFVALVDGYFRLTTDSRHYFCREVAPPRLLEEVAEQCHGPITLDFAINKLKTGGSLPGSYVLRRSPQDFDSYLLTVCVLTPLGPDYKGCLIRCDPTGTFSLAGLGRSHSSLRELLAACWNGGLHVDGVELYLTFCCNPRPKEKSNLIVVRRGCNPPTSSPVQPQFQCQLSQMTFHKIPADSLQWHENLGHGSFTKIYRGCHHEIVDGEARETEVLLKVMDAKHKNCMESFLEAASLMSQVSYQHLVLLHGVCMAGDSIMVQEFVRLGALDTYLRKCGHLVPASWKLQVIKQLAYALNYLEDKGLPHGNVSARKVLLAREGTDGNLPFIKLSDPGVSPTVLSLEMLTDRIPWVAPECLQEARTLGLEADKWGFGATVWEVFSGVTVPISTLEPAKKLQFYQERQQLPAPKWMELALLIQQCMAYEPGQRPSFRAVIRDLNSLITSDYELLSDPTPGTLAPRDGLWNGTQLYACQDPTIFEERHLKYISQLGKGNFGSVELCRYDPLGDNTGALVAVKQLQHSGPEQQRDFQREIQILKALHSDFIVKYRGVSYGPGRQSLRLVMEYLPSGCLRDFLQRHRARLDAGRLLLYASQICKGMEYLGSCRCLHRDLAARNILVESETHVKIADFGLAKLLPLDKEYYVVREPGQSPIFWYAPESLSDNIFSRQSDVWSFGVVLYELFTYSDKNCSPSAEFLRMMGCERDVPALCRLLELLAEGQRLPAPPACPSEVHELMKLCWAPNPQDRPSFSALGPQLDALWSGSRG

| fold induction in ProLabel enzymatic activity as compared to the negative control [fold] | Substance |
| --- | --- |
| 42 | ProLabel-LEPROTL1 (pProLabel-LEPROTL1) (from UniProt Q32PD8 1-131) (natural protein) |
| 34 | ProLabel-INHBA (pProLabel-INHBA) (from UniProt P07995 21-425) (natural protein) |
| 15 | ProLabel-CDKN1B (pProLabel-CDKN1B) (from UniProt A6QLS3 1-198) (natural protein) |
